Results: the supplement of paper PMC10567573

B1: FBXO3 (parent)
chain: GGFPIIRDQIFRYVHDPECVATTG
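Note: lentivirally expressed fusions sorted by FACS into six bins by GFP to DsRed ratio, PSI derived from sequencing read proportions per bin multiplied by bin number.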

Variants of: B1
Test: protein stability index of a GFP-peptide fusion (GPS, HEK-293T) (PSI 1-6); higher = more stable
Details: c terminus: a fixed tail appended
Work on GGFPIIRDQIFRYVHDPYCVATTG [E18Y] yielded a protein stability index of 2.52. GGFPIIRDQIFRYVHDPHCVATTG [E18H] showed a protein stability index of 1.99. GGFPIIRDQIFRYVHDPICVATTG [E18I] gave a protein stability index of 1.92. For GGFPIIRDQIFRYVHDPPCVATTG [E18P], the protein stability index was 2.1. With GGFPIIRDQIFRYVHDPECSATTG [V20S] the protein stability index was 2.32. GGFPIIRDQIFRYVHDPECPATTG [V20P] gave a protein stability index of 2.23. With GGFPIIRDQIFRYVHDPECRATTG [V20R] the protein stability index was 1.63. Variant GGFPIIRDQIFRYVHDPECHATTG [V20H] has a protein stability index of 2.01. In the case of GGFPIIRDQIFRYVHDPECFATTG [V20F], the protein stability index is reported as 1.8. For GGFPIIRDQIFRYVHDPECYATTG [V20Y], the protein stability index was 1.9. With GGFPIIRDQIFRYVHDPECDATTG [V20D] the protein stability index was 1.45. GGFPIIRDQIFRYVHDPECAATTG [V20A] showed a protein stability index of 2.24. For GGFPIIRDQIFRYVHDPECQATTG [V20Q], the protein stability index was 2.04. Work on GGFPIIRDQIFRYVHDPECKATTG [V20K] yielded a protein stability index of 1.27. GGFPIIRDQIFRYVHDPECVANTG [T22N] gave a protein stability index of 2.61. GGFPIIRDQIFRYVHDPECVASTG [T22S] showed a protein stability index of 1.63. In the case of GGFPIIRDQIFRYVHDPECVAGTG [T22G], the protein stability index is reported as 1.66. GGFPIIRDQIFRYVHDPECVAMTG [T22M] showed a protein stability index of 1.53. GGFPIIRDQIFRYVHDPECVAQTG [T22Q] gave a protein stability index of 1.76. For GGFPIIRDQIFRYVHDPECVAWTG [T22W], the protein stability index was 1.84. Work on GGFPWIRDQIFRYVHDPECVATTG [I5W] yielded a protein stability index of 1.53. With GGFPTIRDQIFRYVHDPECVATTG [I5T] the protein stability index was 2.28. Work on GGFPHIRDQIFRYVHDPECVATTG [I5H] yielded a protein stability index of 2.14. GGFPMIRDQIFRYVHDPECVATTG [I5M] gave a protein stability index of 2.71. With GGFPLIRDQIFRYVHDPECVATTG [I5L] the protein stability index was 1.64. With GGFPGIRDQIFRYVHDPECVATTG [I5G] the protein stability index was 2.32. GGFPSIRDQIFRYVHDPECVATTG [I5S] showed a protein stability index of 2.23. For GGFPAIRDQIFRYVHDPECVATTG [I5A], the protein stability index was 2.39. For GGFPRIRDQIFRYVHDPECVATTG [I5R], the protein stability index was 1.86. GGFPQIRDQIFRYVHDPECVATTG [I5Q] gave a protein stability index of 1.59. With GGFPIIRDDIFRYVHDPECVATTG [Q9D] the protein stability index was 2.83. For GGFPIIRDLIFRYVHDPECVATTG [Q9L], the protein stability index was 2.08. GGFPIIRDKIFRYVHDPECVATTG [Q9K] gave a protein stability index of 1.75. Variant GGFPIIRDNIFRYVHDPECVATTG [Q9N] has a protein stability index of 2.29. In the case of GGFPIIRDGIFRYVHDPECVATTG [Q9G], the protein stability index is reported as 1.75. For GGFPIIRDPIFRYVHDPECVATTG [Q9P], the protein stability index was 2.65. Variant GGFPIIRDYIFRYVHDPECVATTG [Q9Y] has a protein stability index of 2.13. In the case of GGFPIIRDWIFRYVHDPECVATTG [Q9W], the protein stability index is reported as 2.29. GGFPIIRDAIFRYVHDPECVATTG [Q9A] showed a protein stability index of 2.13. GGFPIIRDQIFRYVHDRECVATTG [P17R] gave a protein stability index of 1.49. With GGFPIIRDQIFRYVHDMECVATTG [P17M] the protein stability index was 2.1. GGFPIIRDQIFRYVHDHECVATTG [P17H] gave a protein stability index of 1.83. With GGFPIIRDQIFRYVHDYECVATTG [P17Y] the protein stability index was 1.64. GGFPIIRDQIFRYVHDAECVATTG [P17A] showed a protein stability index of 1.84. For GGFPIIRDQIFRYVHDKECVATTG [P17K], the protein stability index was 2.47. Variant GGFPIIRDQIFRYVHDTECVATTG [P17T] has a protein stability index of 2.42. With GGFPIIRDQIFRYVHDCECVATTG [P17C] the protein stability index was 1.83. With GGFPIIRDQIFRYVHDNECVATTG [P17N] the protein stability index was 2.61. Work on GGFPIIRDQIFRYVHDQECVATTG [P17Q] yielded a protein stability index of 1.97. GGFPIIRDQIFRYVHDPECVWTTG [A21W] showed a protein stability index of 1.7. GGFPIIRDQIFRYVHDPECVITTG [A21I] gave a protein stability index of 1.5. With GGFPIIRDQIFRYVHDPECVPTTG [A21P] the protein stability index was 1.86. Work on GGFPIIRDQIFRYVHDPECVVTTG [A21V] yielded a protein stability index of 1.36. Work on GGFPIIRDQIFRYVHDPECVNTTG [A21N] yielded a protein stability index of 1.5. GGFPIIRDQIFRYVHDPECVKTTG [A21K] showed a protein stability index of 1.62. GGFAIIRDQIFRYVHDPECVATTG [P4A] showed a protein stability index of 1.66. Work on GGFFIIRDQIFRYVHDPECVATTG [P4F] yielded a protein stability index of 2.3. Variant GGFDIIRDQIFRYVHDPECVATTG [P4D] has a protein stability index of 2.72. Work on GGFGIIRDQIFRYVHDPECVATTG [P4G] yielded a protein stability index of 2.33. With GGFKIIRDQIFRYVHDPECVATTG [P4K] the protein stability index was 2.54. Work on GGFTIIRDQIFRYVHDPECVATTG [P4T] yielded a protein stability index of 1.67. Work on GGFPIIRDQIERYVHDPECVATTG [F11E] yielded a protein stability index of 3.58. With GGFPIIRDQIQRYVHDPECVATTG [F11Q] the protein stability index was 3.1. In the case of GGFPIIRDQIKRYVHDPECVATTG [F11K], the protein stability index is reported as 2.85. In the case of GGFPIIRDQIWRYVHDPECVATTG [F11W], the protein stability index is reported as 1.9. For GGFPIIRDQISRYVHDPECVATTG [F11S], the protein stability index was 3.45. GGFPIIRDQIMRYVHDPECVATTG [F11M] gave a protein stability index of 2.78. GGFPIIRDQIARYVHDPECVATTG [F11A] showed a protein stability index of 3.59. GGFPIIRDQIVRYVHDPECVATTG [F11V] gave a protein stability index of 3.18. For GGFPIIFDQIFRYVHDPECVATTG [R7F], the protein stability index was 1.67. With GGFPIIVDQIFRYVHDPECVATTG [R7V] the protein stability index was 1.73. Work on GGFPIICDQIFRYVHDPECVATTG [R7C] yielded a protein stability index of 2.35. For GGFPIISDQIFRYVHDPECVATTG [R7S], the protein stability index was 2.45. In the case of GGFPIIHDQIFRYVHDPECVATTG [R7H], the protein stability index is reported as 2.56. Work on GGFPIIADQIFRYVHDPECVATTG [R7A] yielded a protein stability index of 3.41. Variant GGFPIINDQIFRYVHDPECVATTG [R7N] has a protein stability index of 2.83. Variant GGFPIIRDQIFRYVHLPECVATTG [D16L] has a protein stability index of 1.75. GGFPIIRDQIFRYVHRPECVATTG [D16R] gave a protein stability index of 1.5. Work on GGFPIIRDQIFRYVHMPECVATTG [D16M] yielded a protein stability index of 1.88. Variant GGFPIIRDQIFRYVHTPECVATTG [D16T] has a protein stability index of 2.37. With GGFPIIRDQIFRYVHVPECVATTG [D16V] the protein stability index was 2.05. GGFPIIRDQIFRYVHGPECVATTG [D16G] showed a protein stability index of 1.93. With GGFPIIRDQIFRYVHDPENVATTG [C19N] the protein stability index was 1.74. GGFPIIRDQIFRYVHDPEQVATTG [C19Q] showed a protein stability index of 1.94. In the case of GGFPIIRDQIFRYVHDPELVATTG [C19L], the protein stability index is reported as 1.72. GGFPIIRDQIFRYVHDPEAVATTG [C19A] gave a protein stability index of 1.6. GGFPIIRDQIFRYVHDPEYVATTG [C19Y] gave a protein stability index of 1.81. GGFPIIRDQIFRYVHDPEEVATTG [C19E] gave a protein stability index of 2.47. GGFPIIRDQIFRYVHDPEKVATTG [C19K] gave a protein stability index of 1.78. GGFPIIRDQIFRYVHDPEIVATTG [C19I] showed a protein stability index of 1.55. With GGFPIIRDQIFRYVHDPEDVATTG [C19D] the protein stability index was 2.49. GGFPIIRDQIFRYVHDPEPVATTG [C19P] gave a protein stability index of 1.94. GGFPIIRDQIFRYVHDPEFVATTG [C19F] showed a protein stability index of 1.57. Work on GGFPIIRDQIFRYVHDPESVATTG [C19S] yielded a protein stability index of 1.9.
